From PMC8290593, “PTD-mediated delivery of α-globin chain into Κ-562 erythroleukemia cells and α-thalassemic (HBH) patients’ RBCs ex vivo in the frame of Protein Replacement Therapy” (Journal of Biological Research, 2021) come the findings set out here.

The data set concerns the molecule itself. In words: SDS-PAGE and Western blot; recombinant protein extracts (bacterial inclusion bodies in 1 M L-Arg pH 8.0, and soluble proteins purified by Ni2+-NTA) on 15% SDS-PAGE, immunoblotted with anti-His.IgG. (In general: Immunoblotting shows a protein as a band on a membrane.)

B1: 10xHis-Xa_(SITE)-α-globin-HA (natural protein)
chain: not shown
notes: A factor Xa site (Xa_(SITE), from pET-16b) lies between the 10xHis tag and α-globin. ~18.7 kDa as printed; also called α-monomer; recombinant α-globin chain; source: E. coli CD43 (DE3), pET-16b; also as bacterial inclusion bodies dissolved in 1 M L-Arg; not shown: 10xHis, N-terminal, kept; HA, C-terminal, kept
Turning to B1, the binding result was “binds”.
